Target: MTA1 (BAH-ELM2-SANT-ZnF);HDAC1;MBD2 (Homo sapiens?;Homo sapiens?;Homo …, UniProt Q13330;Q13547;Q9UBB5 1-453;1-482;145-411, ||)
Test: EMSA; 1 uM DNA with 1- to 10-fold excess of complex; single bound species; EMSA: 20 mM HEPES pH 7.0, 75 mM potassium acetate, 2 mM DTT, 20 min on ice; 5% acrylamide gel in 0.5x TB
Conditions: protein: recombinant;recombinant;recombinant; tags: His10-Flag3 N-terminal, removed by TEV;none;none; chain copies: 2;2;1; label: none (ethidium bromide stain); blunt (annealed complementary oligonucleotides)

Chain of MTA1 (BAH-ELM2-SANT-ZnF);HDAC1;MBD2 (Q13330 1-453, chain 1 of 3): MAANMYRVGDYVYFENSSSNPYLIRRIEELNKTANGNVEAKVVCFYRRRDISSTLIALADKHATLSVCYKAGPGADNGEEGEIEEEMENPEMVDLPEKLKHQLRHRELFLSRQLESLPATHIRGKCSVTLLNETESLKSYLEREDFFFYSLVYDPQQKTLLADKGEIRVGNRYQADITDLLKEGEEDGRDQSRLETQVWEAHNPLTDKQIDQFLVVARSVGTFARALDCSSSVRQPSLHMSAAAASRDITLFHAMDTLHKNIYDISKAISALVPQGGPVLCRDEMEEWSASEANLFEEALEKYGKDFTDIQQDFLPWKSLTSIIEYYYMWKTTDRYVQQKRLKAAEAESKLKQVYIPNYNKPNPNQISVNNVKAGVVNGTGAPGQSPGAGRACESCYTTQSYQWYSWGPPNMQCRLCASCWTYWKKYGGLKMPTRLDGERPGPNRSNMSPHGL
Chain of MTA1 (BAH-ELM2-SANT-ZnF);HDAC1;MBD2 (Q13547 whole entry, chain 2 of 3): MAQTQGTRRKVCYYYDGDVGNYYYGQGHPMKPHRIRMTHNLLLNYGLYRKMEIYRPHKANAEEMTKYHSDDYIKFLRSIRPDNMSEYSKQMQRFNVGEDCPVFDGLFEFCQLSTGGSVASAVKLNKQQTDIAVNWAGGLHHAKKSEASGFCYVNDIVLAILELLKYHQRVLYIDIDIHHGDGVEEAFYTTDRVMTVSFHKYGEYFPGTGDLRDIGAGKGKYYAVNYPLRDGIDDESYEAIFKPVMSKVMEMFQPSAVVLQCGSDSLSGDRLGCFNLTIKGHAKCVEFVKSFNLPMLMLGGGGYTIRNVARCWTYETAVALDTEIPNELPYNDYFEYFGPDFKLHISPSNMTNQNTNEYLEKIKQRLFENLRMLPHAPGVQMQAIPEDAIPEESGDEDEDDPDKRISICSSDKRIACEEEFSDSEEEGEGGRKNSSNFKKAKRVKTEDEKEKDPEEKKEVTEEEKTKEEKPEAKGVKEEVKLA
Chain of MTA1 (BAH-ELM2-SANT-ZnF);HDAC1;MBD2 (Q9UBB5 145-411, chain 3 of 3): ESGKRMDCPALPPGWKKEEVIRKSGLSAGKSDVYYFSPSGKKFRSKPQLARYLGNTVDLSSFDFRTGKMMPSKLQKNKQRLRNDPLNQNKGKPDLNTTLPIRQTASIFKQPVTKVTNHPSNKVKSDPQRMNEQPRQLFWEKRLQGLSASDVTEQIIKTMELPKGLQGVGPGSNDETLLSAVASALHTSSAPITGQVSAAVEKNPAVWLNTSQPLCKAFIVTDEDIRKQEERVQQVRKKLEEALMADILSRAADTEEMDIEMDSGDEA

B1: methylated DNA duplex 15 nt (dsDNA)
DNA 1: GGAATCGGCTCATGC
DNA 2: GCATGAGCCGATTCC
modifications: 5-methylcytosine at C6 of strand 1 (printed mC in CpG); methylation of the complementary strand not stated
  binding result: binds
